According to the Human Domainome abundance scans (Beltran et al. 2025):
± gives the uncertainty stated by the source.

Assay: abundance fitness (aPCA) (normalised: wild type 0, dead -1); higher = more abundant; growth selection in yeast, the domain comes from the species named
Conditions: Homo sapiens

Substance | abundance fitness
SAFB-like transcription modulator S50P, Q9NWH9 | -0.521 ± 0.14
SAFB-like transcription modulator S50Q, Q9NWH9 | -0.486 ± 0.22
SAFB-like transcription modulator S50R, Q9NWH9 | -0.037 ± 0.062
SAFB-like transcription modulator S50V, Q9NWH9 | -0.38 ± 0.072
SAFB-like transcription modulator T23A, Q9NWH9 | -0.063 ± 0.035
SAFB-like transcription modulator T23C, Q9NWH9 | -0.083 ± 0.042
SAFB-like transcription modulator T23D, Q9NWH9 | -0.093 ± 0.041
SAFB-like transcription modulator T23E, Q9NWH9 | -0.001 ± 0.034
SAFB-like transcription modulator T23F, Q9NWH9 | -0.127 ± 0.035
SAFB-like transcription modulator T23G, Q9NWH9 | -0.072 ± 0.034
SAFB-like transcription modulator T23H, Q9NWH9 | -0.281 ± 0.034
SAFB-like transcription modulator T23I, Q9NWH9 | -0.019 ± 0.033
SAFB-like transcription modulator T23L, Q9NWH9 | -0.184 ± 0.031
SAFB-like transcription modulator T23M, Q9NWH9 | -0.06 ± 0.038
SAFB-like transcription modulator T23N, Q9NWH9 | -0.066 ± 0.035
SAFB-like transcription modulator T23P, Q9NWH9 | -0.339 ± 0.031
SAFB-like transcription modulator T23Q, Q9NWH9 | -0.034 ± 0.046
SAFB-like transcription modulator T23R, Q9NWH9 | -0.178 ± 0.033
SAFB-like transcription modulator T23S, Q9NWH9 | -0.021 ± 0.032
SAFB-like transcription modulator T23V, Q9NWH9 | -0.049 ± 0.031
SAFB-like transcription modulator T23W, Q9NWH9 | -0.175 ± 0.047
SAFB-like transcription modulator T23Y, Q9NWH9 | -0.083 ± 0.033
SAFB-like transcription modulator T42A, Q9NWH9 | -0.045 ± 0.092
SAFB-like transcription modulator T42C, Q9NWH9 | 0.078 ± 0.097
SAFB-like transcription modulator T42D, Q9NWH9 | 0.061 ± 0.092
SAFB-like transcription modulator T42E, Q9NWH9 | -0.107 ± 0.12

Substance | abundance fitness
SAFB-like transcription modulator T42G, Q9NWH9 | -0.247 ± 0.085
SAFB-like transcription modulator T42I, Q9NWH9 | -0.682 ± 0.14
SAFB-like transcription modulator T42K, Q9NWH9 | 0.035 ± 0.11
SAFB-like transcription modulator T42L, Q9NWH9 | -0.345 ± 0.069
SAFB-like transcription modulator T42M, Q9NWH9 | -0.104 ± 0.09
SAFB-like transcription modulator T42N, Q9NWH9 | -0.442 ± 0.16
SAFB-like transcription modulator T42P, Q9NWH9 | -0.729 ± 0.051
SAFB-like transcription modulator T42Q, Q9NWH9 | 0.127 ± 0.1
SAFB-like transcription modulator T42R, Q9NWH9 | 0.057 ± 0.084
SAFB-like transcription modulator T42S, Q9NWH9 | 0.071 ± 0.095
SAFB-like transcription modulator T42V, Q9NWH9 | -0.488 ± 0.099
SAFB-like transcription modulator T42W, Q9NWH9 | -0.315 ± 0.095
SAFB-like transcription modulator T42Y, Q9NWH9 | 0.194 ± 0.11
SAFB-like transcription modulator T46A, Q9NWH9 | -0.062 ± 0.068
SAFB-like transcription modulator T46C, Q9NWH9 | 0.066 ± 0.074
SAFB-like transcription modulator T46D, Q9NWH9 | -0.235 ± 0.088
SAFB-like transcription modulator T46E, Q9NWH9 | 0.004 ± 0.068
SAFB-like transcription modulator T46F, Q9NWH9 | -0.358 ± 0.088
SAFB-like transcription modulator T46G, Q9NWH9 | -0.094 ± 0.06
SAFB-like transcription modulator T46H, Q9NWH9 | 0.011 ± 0.071
SAFB-like transcription modulator T46I, Q9NWH9 | -0.107 ± 0.073
SAFB-like transcription modulator T46K, Q9NWH9 | 0.074 ± 0.09
SAFB-like transcription modulator T46L, Q9NWH9 | -0.082 ± 0.052
SAFB-like transcription modulator T46M, Q9NWH9 | 0.111 ± 0.073
SAFB-like transcription modulator T46N, Q9NWH9 | 0.103 ± 0.093
SAFB-like transcription modulator T46P, Q9NWH9 | 0.037 ± 0.071

Substance | abundance fitness
SAFB-like transcription modulator T46Q, Q9NWH9 | -0.137 ± 0.074
SAFB-like transcription modulator T46R, Q9NWH9 | -0.163 ± 0.064
SAFB-like transcription modulator T46S, Q9NWH9 | 0.05 ± 0.059
SAFB-like transcription modulator T46W, Q9NWH9 | -0.129 ± 0.038
SAFB-like transcription modulator T46Y, Q9NWH9 | -0.097 ± 0.088
SAFB-like transcription modulator V27A, Q9NWH9 | -0.395 ± 0.1
SAFB-like transcription modulator V27C, Q9NWH9 | -0.067 ± 0.094
SAFB-like transcription modulator V27D, Q9NWH9 | -0.127 ± 0.12
SAFB-like transcription modulator V27E, Q9NWH9 | -0.153 ± 0.11
SAFB-like transcription modulator V27F, Q9NWH9 | -0.585 ± 0.15
SAFB-like transcription modulator V27G, Q9NWH9 | -0.405 ± 0.088
SAFB-like transcription modulator V27I, Q9NWH9 | -0.011 ± 0.054
SAFB-like transcription modulator V27K, Q9NWH9 | -0.533 ± 0.27
SAFB-like transcription modulator V27L, Q9NWH9 | -0.21 ± 0.082
SAFB-like transcription modulator V27M, Q9NWH9 | 0.158 ± 0.099
SAFB-like transcription modulator V27N, Q9NWH9 | -0.453 ± 0.16
SAFB-like transcription modulator V27Q, Q9NWH9 | -0.426 ± 0.15
SAFB-like transcription modulator V27R, Q9NWH9 | -0.241 ± 0.07
SAFB-like transcription modulator V27S, Q9NWH9 | -0.417 ± 0.097
SAFB-like transcription modulator V27T, Q9NWH9 | 0.086 ± 0.092
SAFB-like transcription modulator V27W, Q9NWH9 | -0.396 ± 0.09
SAFB-like transcription modulator V27Y, Q9NWH9 | -0.29 ± 0.24
SAFB-like transcription modulator V44A, Q9NWH9 | 0.064 ± 0.039
SAFB-like transcription modulator V44C, Q9NWH9 | 0.036 ± 0.076
SAFB-like transcription modulator V44D, Q9NWH9 | 0.055 ± 0.072
SAFB-like transcription modulator V44E, Q9NWH9 | -0.124 ± 0.075

Substance | abundance fitness
SAFB-like transcription modulator V44F, Q9NWH9 | 0.002 ± 0.075
SAFB-like transcription modulator V44H, Q9NWH9 | 0.126 ± 0.089
SAFB-like transcription modulator V44I, Q9NWH9 | -0.057 ± 0.054
SAFB-like transcription modulator V44K, Q9NWH9 | -0.233 ± 0.088
SAFB-like transcription modulator V44L, Q9NWH9 | -0.122 ± 0.038
SAFB-like transcription modulator V44M, Q9NWH9 | -0.092 ± 0.058
SAFB-like transcription modulator V44N, Q9NWH9 | 0.048 ± 0.058
SAFB-like transcription modulator V44P, Q9NWH9 | 0.014 ± 0.049
SAFB-like transcription modulator V44Q, Q9NWH9 | -0.134 ± 0.078
SAFB-like transcription modulator V44R, Q9NWH9 | -0.054 ± 0.034
SAFB-like transcription modulator V44S, Q9NWH9 | 0.036 ± 0.051
SAFB-like transcription modulator V44T, Q9NWH9 | -0.008 ± 0.06
SAFB-like transcription modulator V44W, Q9NWH9 | -0.358 ± 0.055
SAFB-like transcription modulator V44Y, Q9NWH9 | -0.258 ± 0.081
SAFB-like transcription modulator V47A, Q9NWH9 | -0.025 ± 0.058
SAFB-like transcription modulator V47C, Q9NWH9 | -0.074 ± 0.037
SAFB-like transcription modulator V47D, Q9NWH9 | -0.001 ± 0.065
SAFB-like transcription modulator V47E, Q9NWH9 | 0.022 ± 0.068
SAFB-like transcription modulator V47F, Q9NWH9 | -0.447 ± 0.044
SAFB-like transcription modulator V47G, Q9NWH9 | -0.28 ± 0.038
SAFB-like transcription modulator V47H, Q9NWH9 | -0.329 ± 0.081
SAFB-like transcription modulator V47I, Q9NWH9 | 0.051 ± 0.066
SAFB-like transcription modulator V47K, Q9NWH9 | 0.003 ± 0.063
SAFB-like transcription modulator V47L, Q9NWH9 | -0.125 ± 0.038
SAFB-like transcription modulator V47M, Q9NWH9 | 0.013 ± 0.061
